In patent publication US20090312245A1, “SRA binding protein” (The University of Western Australia, priority 2005, published 2009):
Blank lines part the entries; values can stand above or below the molecule they belong to.

How the values were obtained:
[1] = system: estrogen receptor (ER); test: ERE-Luc (E2-responsive) reporter transfection assay in HeLa cells; type: cell-based, human
Procedure: HeLa cells were transfected using FuGENE6 (Roche) with equal molar ratios of control and plasmid DNA: 50 ng/well ER(α); 0.6 μg/well ERE-Luc, GRE-Luc, TRE-Luc, ARE-Luc, VDRE-Luc; 0.0625 μg/well pSCT or 0.08 μg/well pSCT-SRA/pSCT-SRA-SDM7a; 0.049 μg/well pCMV-FLAG-7.1 or […] FLAG-SLIRP/FLAG-SLIRP-R24/FLAG-SLIRP-L62/FLAG-SLIRP-DM; 0.3 μg/well pCMX or 0.5 μg/well pCMX-SHARP; 100 ng/well pCGN or 100 ng/well pCGN-SKIP. After transfection, cells were cultured in complete medium for 24 h, prior to the addition of E2 (10 nM), Dex (10 nM), T3 (1 nM), DHT (10 nM), VitD (100 nM), 4-hydroxytamoxifen (Tam, 1 nM), ICI182780 (ICI, 1 nM) or equal volume of vehicle (absolute ethanol or water). After 8 h, lysates were assayed for luciferase activity relative to protein levels using Luciferase (Promega) and Protein Assay (BioRad) on a FluorStar Optima (BMG).

[2] = system: SRA STR7; test: REMSA with 32P-labeled SRA STR7 probe and recombinant proteins; type: binding, human; details: in the presence of heparin and RNase T1
Description: The yeast three-hybrid SLIRP cDNA clone containing the coding region and 3′ UTR, was amplified with specific primers SLIRP (sense) 5′ cgc gga tcc gcg gcc tca gca gca 3′, SLIRP (reverse) 5′ gcg cgg atc cta ggc tgc agt ctca 3′, and subcloned into BamHI cut pCMV-FLAG 7.1 for transfection assays and pGEX-6P2 for GST-fusion protein experiments. STR7 primers (sense) 5′ agg agg cag gta tgt gat gac atc agc cga cgc ctg gca ctg ctg cag gaa cag tgg gct gga gga aag ttg tca ata cct gta aag aa 3′ and (reverse) 5′ ttc ttt aca ggt aft gac aac ttt cct cca gcc cac tgt tcc tgc agc agt gcc agg cgt cgg ctg atg tca tca cat acc tgc ttc ct 3′ were annealed and cloned into EcoRV-digested pBluescript II KS+ to generate labeled riboprobes. To generate the SRA mutant SDM7, the underlined residues above were mutated to tcc, ctc and ctc as outlined previously (19). pBluescript vectors were linearized with EcoRV for transcription with T7 or T3 RNA polymerase (Invitrogen) in reactions containing [^32P]UTP (Amersham Biosciences) or unlabeled UTP, as described (16), to produce riboprobes with a specific activity of ˜2×10^9 cpm/μg RNA. Constructs for expressing mutant forms of SLIRP (R24, 25A and L62A) were prepared by PCR-based mutagenesis. Each of the mutant coding domains was subcloned into BamH1-cut pCMV-FLAG 7.1 and pGEX-6P2 as above. […]

Molecule: SHARP: SMRT/HDAC1 associated repressor protein, SRA corepressor, transfected expression vector [reference compound]
repression of SRA-mediated coactivation of E2-responsive reporter ([1]; cotransfected with SRA): repressed SRA-mediated coactivation

binding to SRA STR7 probe [2]: bound STR7 avidly
B1: GST-SHARP-RRM: GST-SHARP fusion protein containing the three RRM domains (SHARP aas 1-608) (protein, UniProt Q96T58 1-608, looked up, fragment)
chain: MVRETRHLWVGNLPENVREEKIIEHFKRYGRVESVKILPKRGSEGGVAAFVDFVDIKSAQKAHNSVNKMGDRDLRTDYNEPGTIPSAARGLDDTVSIASRSREVSGFRGGGGGPAYGPPPSLHAREGRYERRLDGASDNRERAYEHSAYGHHERGTGGFDRTRHYDQDYYRDPRERTLQHGLYYASRSRSPNRFDAHDPRYEPRAREQFTLPSVVHRDIYRDDITREVRGRRPERNYQHSRSRSPHSSQSRNQSPQRLASQASRPTRSPSGSGSRSRSSSSDSISSSSSTSSDSSDSSSSSSDDSPARSVQSAAVPAPTSQLLSSLEKDEPRKSFGIKVQNLPVRSTDTSLKDGLFHEFKKFGKVTSVQIHGTSEERYGLVFFRQQEDQEKALTASKGKLFFGMQIEVTAWIGPETESENEFRPLDERIDEFHPKATRTLFIGNLEKTTTYHDLRNIFQRFGEIVDIDIKKVNGVPQYAFLQYCDIASVCKAIKKMDGEYLGNNRLKLGFGKSMPTNCVWLDGLSSNVSDQYLTRHFCRYGPVVKVVFDRLKGMALVLYNEIEYAQAAVKETKGRKIGGNKIKVDFANRESQLAFYHCMEKSGQDIRD
modifications: GST fusion

B2: SKIP: coregulator, coactivator of ER transactivation, transfected expression vector (protein, UniProt Q13573 2-536, looked up)
SNW domain-containing protein …: ALTSFLPAPTQLSQDQLEAEEKARSQRSRQTSLVSSRREPPPYGYRKGWIPRLLEDFGDGGAFPEIHVAQYPLDMGRKKKMSNALAIQVDSEGKIKYDAIARQGQSKDKVIYSKYTDLVPKEVMNADDPDLQRPDEEAIKEITEKTRVALEKSVSQKVAAAMPVRAADKLAPAQYIRYTPSQQGVAFNSGAKQRVIRMVEMQKDPMEPPRFKINKKIPRGPPSPPAPVMHSPSRKMTVKEQQEWKIPPCISNWKNAKGYTIPLDKRLAADGRGLQTVHINENFAKLAEALYIADRKAREAVEMRAQVERKMAQKEKEKHEEKLREMAQKARERRAGIKTHVEKEDGEARERDEIRHDRRKERQHDRNLSRAAPDKRSKLQRNENRDISEVIALGVPNPRTSNEVQYDQRLFNQSKGMDSGFAGGEDEIYNVYDQAWRGGKDMAQSIYRPSKNLDKDMYGDDLEARIKTNRFVPDKEFSGSDRRQRGREGPVQFEEDPFGLDKFLEEAKQHGGSKRPSDSSRPKEHEHEGKKRRKE
total increase in reporter activity ([1]; SKIP with cotransfected SRA): ~6 fold
increase of reporter activity ([1]; transfected SKIP alone): ~2 fold
